Source: patent publication US5910570A, “Cloned DNA encoding a UDP-GalNAc: polypeptide N-acetylgalactosaminy-ltransferase” (Pharmacia & Upjohn Company, priority 1997, dated 1999)
Where “and” joins values, the source holds several entries; their conditions need not be identical. Identical values can stand only once.

Columns and labels:
[1] = system: GalNAc-transferase purified from porcine submaxillary glands; details: Wang et al., 1992; read-out: Km for UDP-GalNAc; cited from earlier work
[2] = molecular target: T1, cloned soluble GalNAc-transferase (GalNAcTs) (Bos taurus, UniProt Q07537); assay: Kinetic parameters with the cloned soluble GalNAc-transferase (Bond Elut assay); assay type: biochemical, bovine; details: read-out: Km for UDP-GalNAc
T1 construct: The plasmid pAC373-GalNAcT (Homa et al., 1993) which contains the full length GalNAc-transferase gene; honeybee melittin signal peptide (21 aa) (N, cleaved yes); made in house; host or cells: Sf9 cells / baculovirus, purified from serum-free culture medium on apomucin-Sepharose
T1 sequence (Q07537 48-559 limits assumed): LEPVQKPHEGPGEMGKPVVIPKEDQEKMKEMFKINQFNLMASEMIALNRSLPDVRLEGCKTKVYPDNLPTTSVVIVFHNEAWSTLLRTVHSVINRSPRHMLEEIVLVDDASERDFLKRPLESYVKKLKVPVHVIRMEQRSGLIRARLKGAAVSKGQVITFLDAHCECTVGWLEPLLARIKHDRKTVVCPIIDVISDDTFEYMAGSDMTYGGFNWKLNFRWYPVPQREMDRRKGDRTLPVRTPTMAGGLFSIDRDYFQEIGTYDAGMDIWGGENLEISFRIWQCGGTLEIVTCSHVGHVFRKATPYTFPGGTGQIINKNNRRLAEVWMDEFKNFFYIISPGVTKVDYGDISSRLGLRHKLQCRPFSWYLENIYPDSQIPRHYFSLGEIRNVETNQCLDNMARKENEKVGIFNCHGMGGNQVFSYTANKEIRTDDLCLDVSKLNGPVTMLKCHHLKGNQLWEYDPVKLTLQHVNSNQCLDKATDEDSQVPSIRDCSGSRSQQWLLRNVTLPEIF

[3] = molecular target: T2, bovine colostrum GalNAc-transferase (Bos taurus, UniProt Q07537); set-up: host or cells: bovine colostrum; details: Elhammer and Kornfeld, 1986; read-out: Km for UDP-GalNAc; cited from earlier work
T2 sequence (Q07537 41-559 limits assumed): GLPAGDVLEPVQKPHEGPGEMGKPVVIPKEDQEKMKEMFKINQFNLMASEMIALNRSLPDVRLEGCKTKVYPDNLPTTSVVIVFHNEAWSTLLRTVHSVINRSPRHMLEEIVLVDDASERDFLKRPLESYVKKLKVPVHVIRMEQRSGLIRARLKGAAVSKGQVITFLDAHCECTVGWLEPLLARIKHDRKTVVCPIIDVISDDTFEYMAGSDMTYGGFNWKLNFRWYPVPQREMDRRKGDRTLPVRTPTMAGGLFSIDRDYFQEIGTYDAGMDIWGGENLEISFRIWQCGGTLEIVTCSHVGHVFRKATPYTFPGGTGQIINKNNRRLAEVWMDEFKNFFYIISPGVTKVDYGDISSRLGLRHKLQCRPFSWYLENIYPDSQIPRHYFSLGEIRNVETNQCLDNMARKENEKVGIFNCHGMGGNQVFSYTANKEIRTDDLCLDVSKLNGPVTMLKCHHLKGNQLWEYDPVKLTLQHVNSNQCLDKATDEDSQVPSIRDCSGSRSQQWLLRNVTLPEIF

[4] = molecular target: T2, bovine colostrum GalNAc-transferase; assay: Transfer of N-acetylgalactosamine to protein acceptors; assay type: biochemical; set-up: from tissue; host or cells: bovine colostrum; details: for acceptor activity (in words): native or reduced and carboxymethylated state
Description: The above conclusions and the predictions of the specificity algorithm are validated experimentally by studying the ability of bovine colostrum GalNAc-transferase to transfer N-acetylgalactosamine to a variety of acceptors, both native proteins and synthetic acceptor peptides. The transfer of N-acetylgalactosamine to protein acceptors is assayed as described by Elhammer and Kornfeld, 1986, with minor modifications. The concentration of UDP-GalNAc is saturating in all assays; a Km of 8 μM is reported for bovine colostrum GalNAc-transferase (Elhammer and Kornfeld, 1986).
The transfer of N-acetylgalactosamine to protein acceptors was assayed
under standard conditions (see Material and Methods). The acceptor
concentration was 65 μM, the enzyme concentration approximately 65
mU/ml and assay time was 60 minutes. The transfer to both native and
reduced-carboxymethylated acceptors was assayed.

| Km [2] | Product formed, Native ([4]; native acceptor 65 μM, enzyme approx. 65 mU/ml, 60 minutes) | acceptor activity (in words) ([4]; listed as bovine cytochrome C) | acceptor activity (in words) ([4]; listed as cytochrome C) | Product formed, Reduced and carboxymethylated ([4]; reduced and carboxymethylated acceptor 65 μM, enzyme approx. 65 mU/ml, 60 minutes) | Compound | Km [1] | Km [3] |
| --- | --- | --- | --- | --- | --- | --- | --- |
| ~1.7 µM and 1.7 µM | – | – | – | – | CC(=O)N[C@H]1[C@@H](OP(=O)(O)OP(=O)(O)OC[C@H]2O[C@@H](n3ccc(=O)[nH]c3=O)[C@H](O)[C@@H]2O)O[C@H](CO)[C@H](O)[C@@H]1O [UDP-GalNAc, UDP-N-acetylgalactosamine] | 6 µM | 8 µM |
| – | < 0.1 nmol/min/mg | not an acceptor | completely inactive as an acceptor | < 0.1 nmol/min/mg | Bovine cytochrome C: protein with one Ser and eight Thr residues but no predicted potential sites | – | – |
